Target: porcine stomach mucin (porcine)
Test: SPR

YASPKCFRYPNGVLACT [odorranalectin]
Kd: 1910 nM
